Series [1] deals with the molecule itself. The series is described as follows: cryo-EM 2D classification.
The series “cryo-EM structure” deals with the molecule itself. The series is described as follows: cryo-EM structure.

Values joined by “and” are separate entries in the source; they are usually repeats but may differ in a detail not shown here. Identical values can stand only once.

B1: full-length mature human contactin-2 (CNTN2), residues 29-1012, wild type (natural protein, UniProt Q02246 29-1012, looked up)
chain: LGSQTTFGPVFEDQPLSVLFPEESTEEQVLLACRARASPPATYRWKMNGTEMKLEPGSRHQLVGGNLVIMNPTKAQDAGVYQCLASNPVGTVVSREAILRFGFLQEFSKEERDPVKAHEGWGVMLPCNPPAHYPGLSYRWLLNEFPNFIPTDGRHFVSQTTGNLYIARTNASDLGNYSCLATSHMDFSTKSVFSKFAQLNLAAEDTRLFAPSIKARFPAETYALVGQQVTLECFAFGNPVPRIKWRKVDGSLSPQWTTAEPTLQIPSVSFEDEGTYECEAENSKGRDTVQGRIIVQAQPEWLKVISDTEADIGSNLRWGCAAAGKPRPTVRWLRNGEPLASQNRVEVLAGDLRFSKLSLEDSGMYQCVAENKHGTIYASAELAVQALAPDFRLNPVRRLIPAARGGEILIPCQPRAAPKAVVLWSKGTEILVNSSRVTVTPDGTLIIRNISRSDEGKYTCFAENFMGKANSTGILSVRDATKITLAPSSADINLGDNLTLQCHASHDPTMDLTFTWTLDDFPIDFDKPGGHYRRTNVKETIGDLTILNAQLRHGGKYTCMAQTVVDSASKEATVLVRGPPGPPGGVVVRDIGDTTIQLSWSRGFDNHSPIAKYTLQARTPPAGKWKQVRTNPANIEGNAETAQVLGLTPWMDYEFRVIASNILGTGEPSGPSSKIRTREAAPSVAPSGLSGGGGAPGELIVNWTPMSREYQNGDGFGYLLSFRRQGSTHWQTARVPGADAQYFVYSNESVRPYTPFEVKIRSYNRRGDGPESLTALVYSAEEEPRVAPTKVWAKGVSSSEMNVTWEPVQQDMNGILLGYEIRYWKAGDKEAAADRVRTAGLDTSARVSGLHPNTKYHVTVRAYNRAGTGPASPSANATTMKPPPRRPPGNISWTFSSSSLSIKWDPVVPFRNESAVTGYKMLYQNDLHLTPTLHLTGKNWIEIPVPEDIGHALVQIRTTGPGGDGIPAEVHIVRNGGTSMMVEN
modifications: N-linked glycans at Asn76, Asn198, Asn461, Asn477, Asn498, Asn525 (densities in the cryo-EM map)
Consider B1, for which the stoichiometry N (in general, the number of molecules, sites or subunits per partner or assembly) in series [1] was 4 and 6; in “cryo-EM structure”, 2.

(Values after PMC11796320 (The Febs Journal, 2024).)
